PMC11714857, “PRDX5 and PRDX6 translocation and oligomerization in bull sperm: a response to cryopreservation-induced oxidative stress” (Cell Communication and Signaling : CCS, 2025)
Several values for one entry are separate records, joined by “and”; a condition that tells them apart may be missing. Identical values can stand only once.

Biological target: the molecule itself
Experiment: non-reducing SDS-PAGE with Western blot; native protein extracts of fresh or cryopreserved bull sperm, 30 ug protein, Laemmli buffer with 1.275% SDS and without 2-mercaptoethanol, 12% gels; compared with standard reducing SDS-PAGE; oligomer bands stronger after cryopreservation

| Protein | stoichiometry N |
| --- | --- |
| peroxiredoxin 5 (enzyme, Bos taurus (endogenous in bull sperm), UniProt Q9BGI1 58-219, looked up, peroxiredoxin 5 (PRDX5) from Bos taurus, endogenous in bull sperm; runs as a single 17.5 kDa band in standard SDS-PAGE; The oligomers are disulfide-linked, as they appear only in non-reducing SDS-PAGE; also called PRDX5; source: endogenous, bull sperm lysate (native protein extraction; fresh or cryopreserved sperm)) MAPIKVGDAIPSVEVFEKEPGNKVNLAELFKGKKGVLFGLPGAFTPGCSKTHLPGFVEQADALKAKGIQVVACLTVNDVFVTEEWARAHKAEGKVRLLADPSGTFGKETDLLLDDSLLFLFGNHRLKRFSMVIEDGIVKSLNVEPDGTGLTCSLAPNILSQL | 6 |
| peroxiredoxin 6 (enzyme, bovine (endogenous in bull sperm), UniProt O77834 1-224, looked up, peroxiredoxin 6 (PRDX6), bovine, endogenous in bull sperm; runs as a single 25 kDa band in standard SDS-PAGE; The oligomers are disulfide-linked, as they appear only in non-reducing SDS-PAGE; also called PRDX6; source: endogenous, bull sperm lysate (native protein extraction; fresh or cryopreserved sperm)) MPGGLLLGDEAPNFEANTTIGRIRFHDYLGDSWGILFSHPRDFTPVCTTELGRAAKLAPEFAKRNVKMIALSIDSVEDHLAWSKDINAYNGEEPTEKLPFPIIDDKNRDLAIQLGMLDPAEKDEKGMPVTARVVFIFGPDKKLKLSILYPATTGRNFDEILRVIISLQLTAEKRVATPVDWKNGDSVMVLPTIPEEEAKKLFPKGVFTKELPSGKKYLRYTPQP | 2 and 6 |
